Experiment [1] concerns the target HAdV-D37 protein IIIa tagged with C-terminal 3X FLAG (human adenovirus D type 37 (HAdV-D37)). In words: SPR; BIAcore T200, 25°C, […] (25 mM HEPES, 150 mM NaCl, 0.05% P20, 2 mM DTT, pH 7.4); […]; 1:1 binding model. For orientation: SPR reads the build-up and loss of mass on a sensor chip optically.
Experiment [2] shares this target. In words: SPR; […] (80 nM or 2.5 nM) […].

Here are results for two substances from publication PMC9242475.

Chain of partial recombinant RANBP2 protein (#ab268915, Abcam) (domain or fragment) (P49792 1346-1815): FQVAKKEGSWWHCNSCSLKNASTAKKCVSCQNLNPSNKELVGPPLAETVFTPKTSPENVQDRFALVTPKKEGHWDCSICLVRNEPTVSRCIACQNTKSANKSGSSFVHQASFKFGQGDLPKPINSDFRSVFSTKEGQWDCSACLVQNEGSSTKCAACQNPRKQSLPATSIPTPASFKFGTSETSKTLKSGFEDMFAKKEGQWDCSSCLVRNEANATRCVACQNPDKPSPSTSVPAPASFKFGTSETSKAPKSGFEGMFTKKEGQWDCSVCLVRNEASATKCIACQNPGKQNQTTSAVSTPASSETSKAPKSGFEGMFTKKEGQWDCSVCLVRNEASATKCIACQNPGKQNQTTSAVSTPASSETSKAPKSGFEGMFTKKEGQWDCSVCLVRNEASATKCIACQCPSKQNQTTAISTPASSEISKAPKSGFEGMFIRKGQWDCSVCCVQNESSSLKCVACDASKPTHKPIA

As usually defined, the Kd is the constant that tells how readily two partners part at equilibrium. A low value points to higher affinity. One may read the koff as the rate constant with which the complex falls apart. Read a low koff as a long-lived complex. What is called kon is a measure of how fast the partners come together. A high value points to faster complex formation. In experiment [1], “partial recombinant RANBP2 protein (#ab268915, Abcam) (domain or fragment)” gave a Kd of 13.7 nM, a koff of 0.000658 s⁻¹ and a kon of 48000 M⁻¹ s⁻¹. Further, the Kd in experiment [2] is 122 nM.
In experiment [1], “recombinant USP9X protein (#ab271784, Abcam) (from UniProt Q93008 1-2554) (enzyme)” yielded a Kd of 32 nM, a dissociation rate constant (koff) of 0.00119 s⁻¹ and a kon of 37200 M⁻¹ s⁻¹. Besides, the Kd in experiment [2] is 1.8 nM.
